Test [1] addresses human mitochondrial cysteine desulfurase NFS1 (human). Briefly: amino acid analysis + other: SAXS.
In test [2] the target is [Acp]2:[ISD11]2:[NFS1]2 cysteine desulfurase complex (human | E. coli) (UniProt Q9HD34). Briefly: SEC + other: amino acid analysis + other: SAXS.
In another test the target is human ISD11-His6 (human) (UniProt Q9HD34). Briefly: amino acid analysis + other: SAXS.
The target in another test is human ISD11-His6 (human, UniProt Q9HD34 1-91). Put plainly: amino acid analysis + other: SAXS.
human ISD11-His6, sequence (Q9HD34 whole entry): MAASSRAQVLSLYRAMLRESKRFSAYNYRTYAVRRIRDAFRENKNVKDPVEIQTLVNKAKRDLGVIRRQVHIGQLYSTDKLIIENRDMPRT

The values below come from publication PMC5404276 (ACS Chemical Biology, 2017).

human mitochondrial cysteine desulfurase NFS1 (human), sequence (Q9Y697 whole entry): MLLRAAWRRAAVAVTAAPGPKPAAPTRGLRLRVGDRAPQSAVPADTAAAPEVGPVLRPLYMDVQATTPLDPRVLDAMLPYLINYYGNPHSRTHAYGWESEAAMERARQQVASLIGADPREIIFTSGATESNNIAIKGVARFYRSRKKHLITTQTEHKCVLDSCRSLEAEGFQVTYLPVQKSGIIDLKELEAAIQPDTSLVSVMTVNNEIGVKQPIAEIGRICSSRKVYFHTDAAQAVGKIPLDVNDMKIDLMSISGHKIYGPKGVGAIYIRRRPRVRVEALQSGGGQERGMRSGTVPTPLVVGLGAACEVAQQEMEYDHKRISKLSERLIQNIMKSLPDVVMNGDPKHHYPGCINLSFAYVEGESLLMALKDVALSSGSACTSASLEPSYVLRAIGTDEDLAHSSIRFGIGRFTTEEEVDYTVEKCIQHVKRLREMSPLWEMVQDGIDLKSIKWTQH
[Acp]2:[ISD11]2:[NFS1]2 cysteine desulfurase complex (human | E. coli), sequence (Q9HD34 whole entry, looked up, one chain of several): as the sequence (Q9HD34 whole entry) above
human ISD11-His6 (human), sequence (Q9HD34 whole entry): as above

On to “holo-form of E. coli acyl carrier protein (Acp) (from UniProt P0A6A8 1-78) (natural protein)”, for which, in test [1], the stoichiometry N (usually a count of units in the complex or per binding partner) was determined as 1.
Regarding “human frataxin FXN81-210 (mature form of frataxin) (from UniProt Q16595 81-210) (natural protein)”, in test [2], the stoichiometry N was 2.
Regarding “human mitochondrial cysteine desulfurase NFS1 (enzyme)”, the stoichiometry N with human ISD11-His6 (human) stood at 1.

B1: holo-form of E. coli acyl carrier protein (Acp) (natural protein, UniProt P0A6A8 1-78, looked up)
chain: MSTIEERVKKIIGEQLGVKQEEVTNNASFVEDLGADSLDTVELVMALEEEFDTEIPDEEAEKITTVQAAIDYINGHQA
modifications: 4'-phosphopantetheine conjugated to S37
In the case of B1, in the test with human ISD11-His6, the “stoichiometry N” value was found to be 1.
